# Test system: modulator of non-genomic activity of nuclear receptors (MNAR)
substance,measurement,value
cSrc,"cSrc enzymatic activity (acid denatured enolase as a substrate, [32P]-γATP, SDS-PAGE autoradiography)",MNAR itself strongly stimulates cSrc enzymatic activity
